Reference: the DeepSol protein solubility set

Test: soluble on expression in E. coli; label from the status in PepcDB or PDB records

Soluble on expression in E. coli, not soluble:
MGSDKIHHHHHHMTSKINKIVNGPIPDSFLFDESKRLDSLKFDGTNLEVLDQLLLPHEFKYIPVEGVSDAFAVIKSMQVRGAPLIAVVGSLGLLLEIQKASELDSESIIQKINFLISSRPTAVDLRNSLNGLKPILESQDYSDVVKLEKCRSYLLNVYTDEKLQNRILVWNAYQELLSAFPDKEKLTVMTICNTGSLATISWGTALGVIRALHSENRLKLVYVLETRPYNQGIRLTSIELLHGEVPFKLITDSMAAWAMKNHQVDCVLTGADNVARNGDTANKIGTYMLAVLCKHHNINFYPVVPFTTINKNIATGEEIKIEERPSAEMLRVNGVLIGNSECPVWNPAFDVTPAHLITKILTDFGNWPPEMLEQQIPK
MGSDKIHHHHHHMTSQKYQSKTLKIAVVGDIHDQWEVEDGMALKHLGVDLVLFVGDFGNESVEVVRAIASLNIPKAAVMGNHDAWYTATEWGRKKCPYDRTKEDWVQEQLDLLGSAHVGYGKLDFPEWNLTVVGGRPFSWGGHEWRFADICKDRYGVTTLEESAQRIFASVKSAACETIIFLGHNGPSGLGDRPEDPCGKDWHPIGGDFGDPDLAEAISLTMTTGKQIALVTFGHMHHSLRHTKKELRKPIFKSPEGIVYLNAASVPRIVEGESGKLRNFSLVSLEAGEVTQASLIWVGEDFQVAKEEIFYERSTSVVPSV
MGSDKIHHHHHHMTSRTPLVSVLPDFPWDSLASAKAKAASHPDGIVNLSVGTPVDPVAPSIQIALAEAAGFSGYPQTIGTPELRAAIRGALERRYNMTKLVDASLLPVVGTKEAIALLPFALGISGTVVIPEIAYPTYEVAVVAAGCTVLRSDSLFKLGPQIPSMMFINSPSNPTGKVLGIPHLRKVVKWAQENNVILAADECYLGLGWDDENPPISILDPRVCDGDHTNLIAIHSLSKTSNLASYRAGYLVGDPALIGELTEVRKNLGLMVPFPIQQAMIAALNDDDQEAGQKLTYAIRRAKLMRALLESGFQVDNSEAGLYLWATREEPCRDTVDWFAERGILVAPGDFYGPRGAQHVRVAMTETDERVDAFVSRLS
MGSDKIHHHHHHMTTHSHTLTIAGQPLHYTDQGQGNTLVFIHGLLGNKVQWQSQIDALKANYRCIAIDLWGHGDSQTMPENTANLKDIASQLLSMLTALNINSCSLISLGTGCAIASEMALLSPKNINALVMINGFIGFEPEVNCVKYQGMLDEVQLNNGISTALAKQIATLFFNTQAQKTAVKTDTVTNAVTNEIESASVDSQISDKAMAALAQQLTEINAVQLSALVKFVPMAIYKRDTLEDVERFCLPSLILASNNNKLRTPLEAYLMQDTLDGSQLTQIPNAGHWVHLEQAEQLKQLISQFLQQH
MGSDKIHHHHHHMTTRQPKTEADVLAETANLILDKYFHNQKNICTYDKIELARMLGLAEDNKKSDYALFHFIKALRYVVLGNFNEAINSYEATLRIPNSHAGILSNYATTLIILGELEQAKEMLIKCLNETDDGVSNLEYFANIIELYLLSTLDETLLQHAGNMKDSTLDKYSNILKLKTDINKIDISIQDYQEFTGVLIKFIFDKTRQIYQPRFSIDNGLDRQLNIEAFLNINPEEASYLNTEFRNQYLDYIFDNERHDLLGKFVVFFRQNKNREDGTEKPKAFYLGTNRELEA
MGSDKIHHHHHHMTTSATKEALFSPDCLEFLAKLASNNERDWFKAHQAEYEAKVRTPALNFIGAMAPHIQQLSPRLTAVPKKVGGSLMRPQRDARFSSDKTPYKVNVGIQFRHFQGKDVHAPGLYLHIANDGCFLGAGIWHPDSKALSQIRSCIDDNPNAYKQALKQLSAAGFAMEGDSLQRPPKGYDKHHPMLDELKRKDFIAIKPLDTQQLFTKDFDTWCAEQFNQVNKLMGYLCFALDLDY
MGSDKIHHHHHHMTTVLEKFEKLKTEHAPGQEVRQKTPAFEELLIGEKLEGRTVDFSHGDVDAFLPTPGAFEEFSDGVHSGGKQAYTVYRGLADLREILSVRLTSFTGAPVNAADNLIITPGTQGALFLSVAATVAAGDKVAIVQPDYFANRKLVEFFEAEMLPVQLDYLGTDKAAGLDLNQLEAAFRDGARVFVFSNPNNPTGAVYSTEEIDAIAALADRYGAMVIVDQLYSRLLYEGTEYQHLRAVGGTGRDNVITIMGPSKTESLSGYRLGVAFGPSSVIERMERLQAIVSLRAAGYNQAVLQTWFSEPDGWMSERIKLHQAIRDDLLTRFRARADVAVRTPQAGSYMFAKLPRLRVSPIDFVKILRHQATVIVTPGSEFSPHTASSIRLNFSQNHAAATGAVERLVTLIERYREARP
MGSDKIHHHHHHMTVAVDLPIPAKLVPVFTKENVRYRGAHGGRGSAKTRTFAMMSAVRAYQAAESGTSGVILCAREFMNSLEESSMEEVKQAIRSIPWLDDYFEIGEKYIRTKNRLVNYVFCGLRHNLDSIKSKARILLAWIDEAESVSETAWKKLRPTVRESGSEIWVTWNPEKDGSATDKRLRKKPPKSSIIVEMNYSDNPWFPDVLEEERQEDLESLDHSDYAWIWEGAYLENSEKQVLANKYKIESFPDDLWMQADRLLFGADFGFARDPSTLLRMFILDNCLYIDREAYSVGVELDHMPAFYDQVPESRKWPIKADSARPETISYLKRQGFNISAAKKWQGSVEDGITFLRGFKKIIIHPRCKETAKEARLYSYKVDRITGEVLPIIEDAHNHCWDAARYGLDGYIKGRTTVWDIM
MGSDKIHHHHHHMTVELKNILDLEKWEKLQESLALSTRLAIILVDYKGRPVTKHSQVQPFCQLVRHSPELSKLCEKCDARGGLEAVRTGQPFIYRCHFNIVDMAIPIIVDDQYVGAIMAGEVLLEDHQEELEQVLTMNDAFIQEFLVTHQELYQQYPVLELADLEKSATLIADLSQYIISEAIKKDYLINTYKQSLQISSRKEELEPLNMIQKDIQQTLLTAQLTPSSAYQTKNKQLQPVLDALWENKSLRLNLQELADLVHLTPTYLSRLLKEEFGIPFSQFYRQLKITWAKQLLLETDKTIAQISEDLGFVEDSYFVRIFKQETGETPLKYRKRKNRA
MGSDKIHHHHHHMTWQVWRLGGLAITMVASLLLLDACSRDKAPVQIRSAVSQLPQTLDPRYATDAASARVNRLIYRSLVDFDVHARPAPSLASWRVLSPRLFRFTLGRHGRDFHDGRYLTAEDVAATYQSVIELADSPHAAEFANISKIEVRDENTLDFFLHDADSNFPARLILGILPAELIARQHDFSREPVGSGPFKFVSWQRSLKLERRSDKKRFVFEEVRDPTVRVLKLVRGEADILQGDLPPELVNYLKQQPGIDVQESEGSNFAYIGLNLQDDVLRNPLVRQALAHAIDRESIIKHALVGHSRLAESILPPEHWAGNGNLKPYEYNPVLARELLLRAGVSLPLKLVYKTSTDAQRVRLATMMQAQMRDAGIQLEIRSLDWGTFFDDIKRGNFQLYGLMWVGIKTPEIYHHAFHSSSVPPKGANRGHYADPKTDELIAVSDWASVAERVHAQLPYIPLWYEGQFAATRDHIKGYSLQPDGSWDGLVDVKRSKLKSVFPGRNQSAGM
MGSDKIHHHHHHMTYELSTDREFDLIAIGRACIDLNAVEYNRPMEETMTFSKYVGGSPANIVIGSSKLGLKAGFIGKIADDQHGRFIESYMRGVGVDTSNLVVDQEGHKTGLAFTEIKSPEECSILMYRQDVADLYLSPEEVNEAYIRRSKLLLVSGTALSKSPSREAVLKAIRLAKRNDVKVVFELDYRPYSWETPEETAVYYSLVAEQSDIVIGTREEFDVLENRTEKGDNDETIRYLFKHSPELIVIKHGVEGSFAYTKAGEAYRGYAYKTKVLKTFGAGDSYASAFLYALISGKGIETALKYGSASASIVVSKHSSSDAMPSVEEIEALIEKDETITIA
MGSDKIHHHHHHMVANPALPEGISDLPAGTLASVVTYLEMKTPPPIKGLETPPGLRLLRHDAPDVEWYCRLYRLVGEDYLWFSRLMWDYATLAAHLASDRVEVWSLQKQGVDLGLLELEWMQDGDCELSFFGLSKELIGAGVGRWLMEHATARAFSREISRFFVHTCTLDSPQALGFYMRSGFVPYGRAVEIAEDPRLTGLIPKTAAAHVPLIQR
MGSDKIHHHHHHMVEVLTESNQSLDSLEALCSKYRIERGIVATVVDLNERILAELAALPFPLLWLNHETPLPVGNLYETPETLGYDRIAAVVGANEQFPHNDILVIDAGTCITYEFIDSKGQYHGGNISPGMQMRYKALHQFTGRLPLIDSNGRKLPMGRDTETAIRAGVLKGMEYEISGYIEAMKHKYPELLVFLTGGDDFSFDSSVKSAIFADRFLVLKGLNRILNYNNGRI
MGSDKIHHHHHHMVIVARCNHNGSNLTEQFPPINDIRSNSRQLVRELGFMGGDFAGTDLPPSSVHALIEIEACPGITAKDLGKLLRLEKSSVSRMLRKLILSGDIVEQTDDVDSRIKRLRLTGQGREKVSGINGFANRQVSGALAQLTATDAHTILEGLRLYAGALGARTGTPASTVDIKQGYRPGIIARITQMHALYYARTSGFGQRFESVVAEGLAAFCNRLENPRNAIWVAMRGQEIIGSVAIDGEDLGADIAHLRWFIVDDGIRGGGVGRRLLATALAFADQAGFAETHLWTFNGLLAARHLYETHGFTCTEEYPGSQWGSEVLEQRFIRPRPE
MGSDKIHHHHHHMVKGLYTAHTGMVNEMKRMDVLANNLANSDTYGFKKEGTTSHSFKNELAIKIKDTSNYGLHKNLGSMTYGVHLGETYTDWDEGSFKVTDNPTDLAIGGKGFFAVAFTDKSGQTSVKYTRDGAFKVNADGYLVTADGDHVLNATGALSGDGGEANWVKVDPNEKFSVNSLGYITQNNQLVGTIGVVDVDNYDYIEKYGENLYNLTAGGNIIASDAEIEQGALETSNVNVVNEMVLG
MGSDKIHHHHHHMVLALNYNMHGVNIRSENAAKPHTMPSRYLCEYIRSIEKNGHALDFGCGKLRYSDELISKFDEVTFLDSKRQLEREQIIRGIKTKIIDYVPRYYKNANTVAFEDVDKIIGGYDFILCSNVLSAVPCRDTIDKIVLSIKRLLKSGGETLIVNQYKSSYFKKYETGRKHLYGYIYKNSKSVSYYGLLDELAVQEICSSHGLEILKSWSKAGSSYVTVGSCNAI
MGSDKIHHHHHHMVLLILKFHGESVKIKPECAICIIRQVVDAANEITDDEREQFRLIKSTMEVIKDVYGESAVPAWMGTVVHRYLKKISNNNDPYKNLKEKANKIALQYLDKVREMSNTDDELERLRKKVLATIAGNVIDFGAYSTGINIEKLIEDTLNGELKIDNSRKLLNDLKDKNIKKILYICDNAGEIIFDRVLMEEIKKYDKDIVAVVKGKPILNDATLEDAKIAKIDEIAKVITTGSDIIGIILEECSEEFLKEFESADLIIAKGMGNYESLTEYEDKIDKPIYYILKAKCKPVAENIGVDVGDNVLLKR
MGSDKIHHHHHHMVVDGPRDPRMNMAIDEAILRVGAAPTLRIYMWLPGGLTLGRRQSVEDVNLAEAEKRGYVLVRRPTGGAALLHPWEREITYSLVLDSRHPYYSLDVAESAATIAGGVALALEELGIATRVGGYTPPPGVIGGLCYVRPGSSDVVVAGRKVSGSAQRRIGGRLLQHGTLLLRFDPEEWLSIIPVKGAGPSDLASRIAGIEDLAGRSYSFSEVADALVKGFSKALGLEPEPSGLEGREVEEALRLYRKKYSSPRWNLEGDEP
